Data published in patent US12467929.

Columns and labels:
[1] = biological target: recombinant UBE3A protein (Homo sapiens (Human)) (UniProt Q05086); test: Simoa; capture GTX; 3E5 0.8 ug/ml; UBE3A 20.0 ng/ml
[2] = biological target: recombinant UBE3A protein (Homo sapiens (Human)) (UniProt Q05086); test: Simoa; capture GTX; 3E5 0.8 ug/ml; UBE3A 4.00 ng/ml
[3] = biological target: recombinant UBE3A protein (Homo sapiens (Human)) (UniProt Q05086); test: Simoa; capture GTX + helper beads; 3E5 0.1 ug/ml; UBE3A 0.800 ng/ml
[4] = biological target: recombinant UBE3A protein (Homo sapiens (Human)) (UniProt Q05086); test: Simoa; capture GTX; SBG 150 pm; UBE3A 0.800 ng/ml
[5] = biological target: recombinant UBE3A protein (Homo sapiens (Human)) (UniProt Q05086); test: Simoa; capture GTX + helper beads; 3E5 0.2 ug/ml; UBE3A 4.00 ng/ml
[6] = biological target: recombinant UBE3A protein (Homo sapiens (Human)) (UniProt Q05086); test: Simoa; capture GTX + helper beads; 3E5 0.1 ug/ml; UBE3A 0.00640 ng/ml
[7] = biological target: recombinant UBE3A protein (Homo sapiens (Human)) (UniProt Q05086); test: Simoa head-to-head, Table 11; capture GTX; UBE3A 500 ng/ml
[8] = biological target: recombinant UBE3A protein (Homo sapiens (Human)) (UniProt Q05086); test: 3-step Simoa, 120 min bead step; capture GTX; UBE3A 4.00 ng/ml
[9] = biological target: recombinant UBE3A protein (Homo sapiens (Human)) (UniProt Q05086); test: Simoa; capture GTX, no helper beads; 3E5 0.4 ug/ml; UBE3A 0.800 ng/ml
[10] = biological target: recombinant UBE3A protein (Homo sapiens (Human)) (UniProt Q05086); test: Simoa; capture GTX, no helper beads; 3E5 0.1 ug/ml; UBE3A 0.0320 ng/ml
[11] = biological target: recombinant UBE3A protein (Homo sapiens (Human)) (UniProt Q05086); test: Simoa; capture GTX, no helper beads; 3E5 0.1 ug/ml; UBE3A 0.00640 ng/ml
[12] = biological target: recombinant UBE3A protein (Homo sapiens (Human)) (UniProt Q05086); test: Simoa; capture GTX + helper beads; 3E5 0.4 ug/ml; UBE3A 0.00128 ng/ml
[13] = biological target: recombinant UBE3A protein (Homo sapiens (Human)) (UniProt Q05086); test: Simoa; capture GTX, no helper beads; 3E5 0.1 ug/ml; UBE3A 0.800 ng/ml
[14] = biological target: recombinant UBE3A protein (Homo sapiens (Human)) (UniProt Q05086); test: Simoa; capture GTX, no helper beads; 3E5 0.4 ug/ml; UBE3A 0.00128 ng/ml
[15] = biological target: recombinant UBE3A protein (Homo sapiens (Human)) (UniProt Q05086); test: Simoa; capture GTX; 3E5 0.4 ug/ml; UBE3A 4.00 ng/ml
[16] = biological target: recombinant UBE3A protein (Homo sapiens (Human)) (UniProt Q05086); test: Simoa head-to-head, Table 11; capture GTX; UBE3A 0.032 ng/ml
[17] = biological target: recombinant UBE3A protein (Homo sapiens (Human)) (UniProt Q05086); test: Simoa; capture GTX, no helper beads; 3E5 0.2 ug/ml; UBE3A 0.160 ng/ml
[18] = biological target: recombinant UBE3A protein (Homo sapiens (Human)) (UniProt Q05086); test: 2-step Simoa; capture GTX; UBE3A 1.95 ng/ml
[19] = biological target: recombinant UBE3A protein (Homo sapiens (Human)) (UniProt Q05086); test: 2-step Simoa; capture GTX; UBE3A 0.488 ng/ml
[20] = biological target: recombinant UBE3A protein (Homo sapiens (Human)) (UniProt Q05086); test: 3-step Simoa; capture GTX; UBE3A 1.95 ng/ml

Chain of UniProt Q05086 (Q05086 whole entry): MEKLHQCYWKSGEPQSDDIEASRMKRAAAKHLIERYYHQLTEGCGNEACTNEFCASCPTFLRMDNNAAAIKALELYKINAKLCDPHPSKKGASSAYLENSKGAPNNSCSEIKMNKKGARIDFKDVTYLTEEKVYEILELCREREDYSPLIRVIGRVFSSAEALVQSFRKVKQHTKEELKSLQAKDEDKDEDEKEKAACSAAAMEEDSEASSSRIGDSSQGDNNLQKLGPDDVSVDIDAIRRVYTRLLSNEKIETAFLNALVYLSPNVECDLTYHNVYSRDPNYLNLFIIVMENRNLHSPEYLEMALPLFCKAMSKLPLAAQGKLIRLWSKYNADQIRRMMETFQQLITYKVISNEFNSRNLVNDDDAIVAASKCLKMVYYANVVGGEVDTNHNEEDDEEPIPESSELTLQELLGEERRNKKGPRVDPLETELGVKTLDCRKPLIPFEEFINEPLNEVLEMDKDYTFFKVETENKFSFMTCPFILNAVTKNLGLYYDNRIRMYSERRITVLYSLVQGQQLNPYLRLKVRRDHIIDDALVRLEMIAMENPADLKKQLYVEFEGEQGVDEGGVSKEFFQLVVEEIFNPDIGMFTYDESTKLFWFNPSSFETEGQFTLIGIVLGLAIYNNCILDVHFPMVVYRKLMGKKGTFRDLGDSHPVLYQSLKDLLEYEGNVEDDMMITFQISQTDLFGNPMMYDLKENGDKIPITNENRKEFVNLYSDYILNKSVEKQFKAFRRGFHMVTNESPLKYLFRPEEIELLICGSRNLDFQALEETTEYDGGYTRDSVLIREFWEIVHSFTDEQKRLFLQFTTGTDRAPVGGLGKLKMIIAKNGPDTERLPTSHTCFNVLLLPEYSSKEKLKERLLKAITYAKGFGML

“anti-UBE3A antibody 3E5 (SAB1404508-100 ug, Millipore-Sigma)” showed an AEB1 [1] of 9.16, an AEB2 [1] of 10.3 and an AEB3 [1] of 9.37. For the same substance, the Average AEB [1] was 9.62, the Signal to Background [1] was 78.5 and the AEB1 [2] was 3.18. It also gave an AEB2 [2] of 3.38, an AEB3 [2] of 3.16 and an Average AEB [2] of 3.24. The Signal to Background [2] was 26.4, the AEB1 [3] was 0.167 and the AEB2 [3] was 0.166. For the same substance, the Average AEB [3] was 0.166, the Signal to Background [3] was 29 and the AEB1 [4] was 0.271. The AEB2 [4] was 0.285, the AEB3 [4] was 0.279 and the Average AEB [4] was 0.278. For the same substance, the Signal to Background [4] was 21, the AEB1 [5] was 0.892 and the AEB2 [5] was 0.846. For the same substance, the Average AEB [5] was 0.869, the Signal to Background [5] was 89.8 and the AEB1 [6] was 0.0065. For the same substance, the AEB2 [6] was 0.0045, the Average AEB [6] was 0.0055 and the Signal to Background [6] was 0.962. It also gave an AEB1 [7] of 9.97, an AEB2 [7] of 10.3 and an Ave AEB [7] of 10.1. The Signal to Background [7] was 1240, the AEB1 [8] was 0.533 and the AEB2 [8] was 0.55. It also gave an Ave AEB [8] of 0.542, a Signal to Background [8] of 318 and an AEB1 [9] of 0.335. For the same substance, the AEB2 [9] was 0.338, the Average AEB [9] was 0.337 and the Signal to Background [9] was 17.2. For the same substance, the AEB1 [10] was 0.0108, the AEB2 [10] was 0.0159 and the Average AEB [10] was 0.0133. For the same substance, the Signal to Background [10] was 2.33, the AEB1 [11] was 0.0087 and the AEB2 [11] was 0.0092. It also gave an Average AEB [11] of 0.0089, a Signal to Background [11] of 1.56 and an AEB1 [12] of 0.0222. It also gave an AEB2 [12] of 0.0178, an Average AEB [12] of 0.02 and a Signal to Background [12] of 1.02. It also gave an AEB1 [13] of 0.164, an AEB2 [13] of 0.157 and an Average AEB [13] of 0.16. For the same substance, the Signal to Background [13] was 27.9, the AEB1 [14] was 0.0195 and the AEB2 [14] was 0.0213. It also gave an Average AEB [14] of 0.0204, a Signal to Background [14] of 1.04 and an AEB1 [15] of 2.3. The AEB2 [15] was 2.58, the AEB3 [15] was 2.4 and the Average AEB [15] was 2.43. It also gave a Signal to Background [15] of 38.8, an AEB1 [16] of 0.0127 and an AEB2 [16] of 0.0142. For the same substance, the Ave AEB [16] was 0.0135, the Signal to Background [16] was 1.65 and the AEB1 [17] was 0.0675. The AEB2 [17] was 0.0686, the Average AEB [17] was 0.068 and the Signal to Background [17] was 7.03.
NB500-240 (Novus) (antibody) was tested, and the AEB1 [18] was 0.018, the AEB2 [18] was 0.0187 and the Ave AEB [18] was 0.0184. It also gave a Signal to Background [18] of 5.62, an AEB1 [19] of 0.0073 and an AEB2 [19] of 0.0069. The Ave AEB [19] was 0.0071, the Signal to Background [19] was 2.16 and the AEB1 [20] was 0.0052. The AEB2 [20] was 0.0042, the Ave AEB [20] was 0.0047 and the Signal to Background [20] was 1.44.
